Laboratory results taken from article PMC10272835, “Exploration of T cell immune responses by expression of a dominant-negative SHP1 and SHP2” (Frontiers in Immunology, 2023).

B1: HVEM: inhibitory ligand of BTLA expressed on SupT1-GD2 cells (protein, UniProt Q92956 39-283, looked up)
Tumor necrosis factor …: LPSCKEDEYPVGSECCPKCSPGYRVKEACGELTGTVCEPCPPGTYIAHLNGLSKCLQCQMCDPAMGLRASRNCSRTENAVCGCSPGHFCIVQDGDHCAACRAYATSSPGQRVQKGGTESQDTLCQNCPPGTFSPNGTLEECQHQTKCSWLVTKAGAGTSSSHWVWWFLSGSLVIVIVCSTVGLIICVKRRKPRGDVVKVIVSVQRKRQEAEGEATVIEALQAPPDVTTVAVEETIPSFTGRSPNH
B2: CD155: inhibitory ligand of TIGIT expressed on SupT1-GD2 cells (protein, UniProt P15151 21-417, looked up)
Poliovirus receptor: WPPPGTGDVVVQAPTQVPGFLGDSVTLPCYLQVPNMEVTHVSQLTWARHGESGSMAVFHQTQGPSYSESKRLEFVAARLGAELRNASLRMFGLRVEDEGNYTCLFVTFPQGSRSVDIWLRVLAKPQNTAEVQKVQLTGEPVPMARCVSTGGRPPAQITWHSDLGGMPNTSQVPGFLSGTVTVTSLWILVPSSQVDGKNVTCKVEHESFEKPQLLTVNLTVYYPPEVSISGYDNNWYLGQNEATLTCDARSNPEPTGYNWSTTMGPLPPFAVAQGAQLLIRPVDKPINTTLICNVTNALGARQAELTVQVKEGPPSEHSGISRNAIIFLVLGILVFLILLGIGIYFYWSKCSREVLWHCHLCPSSTEHASASANGHVSYSAVSRENSSSQDPQTEGTR

Tested on: SupT1-GD2 cells
Experiment: Effect of inhibitory ligand expression on GD2 CAR cytotoxicity
Assay type: cell-based
Settings: ligand expressed on SupT1-GD2, E:T 1:4 and 1:8, 6 days
Description: Transduced T cells were depleted of CD56 cells using the EasySep Human CD56 positive selection kit (Stemcell Technologies; 17855) and rested for 24 hours. Transduced cells were co-cultured with target cells at the indicated effector: target (E:T) ratios with target cells remaining constant at the indicated number of target cells/co-culture. At the end of the co-culture period target cells were enumerated by flow cytometry and cytotoxicity calculated as a percentage of the number of target cells recovered from co-cultures with non-transduced (NT) T cells.
Figure 3 Interaction of dSHP2 with immunoinhibitory T cell receptors. (A-E) Binding of dSHP2 to phosphorylated peptides derived from the endodomains of immunoinhibitory T cell receptors. Plates were coated with phosphorylated or non-phosphorylated peptide at the indicated concentration and the purified, His-tagged SH2 domains of dSHP2 were allowed to bind overnight. Binding was measured through detection of the His tag. (F) Effect of inhibitory ligand expression on target cells on CAR T cytotoxicity. […] Supernatants were harvested from these co-cultures and levels of IFNγ measured by ELISA (I). […] Statistical significance was measured by two-way ANOVA. […]

Row | Molecule | effect of target cell ligand expression on CAR T cytotoxicity
1 | B1 | mild enhancement of CAR T cytotoxicity
2 | B2 | mild enhancement of CAR T cytotoxicity
